# Residue numbers refer to the chain shown, from its start.
# B1: R1-26 (antibody, V domains shown)
# VH: EVQLVESGGGLVQPGGSLRLSCAASGFTFSSYWMSWVRQAPGKGLEWVANIKQDGSEKYYVDSVKGRFTISRDNAKNSLYLQMNSLRAEDTAVYYCARGQLGPWVGVDYWGQGTLVTVSS
# VL: NFMLTQPHSVSESPGKTVTISCTGSSGSIASNYVQWYQQRPGSAPTTVIYEDNQRPSGVPDRFSGSIDSSSNSASLTISGLKTEDEADYYCQSYDSSNWVFGGGTQLTVL
# B2: H18 (recombinant mAb, IgG) (antibody, V domains shown)
# VH: QVQLQESGPGLVKPSETLSLTCTVSGGSVSSGGYFWSWIRQPPGKGLEWIGCIYYSGSTNYNPSLKSRVTISVDTSKDQFSLKLSSVTAADTAVYYCARQLWLRGRFDYWGQGTLVTVSS
# VL: B1 VL with G24R, A44S, W99V, Q106K
# B3: H5 (antibody, V domains shown)
# VH: QVQLVESGGGLVKPGGSLRLSCAASGFTFSDYYMSWIRQAPGKGLEWVSYISSSGSTIYYADSVKGRFTISRDNAKNSLYLQMNSLRAEDTAVYYCARAKWLRGHFDYWGQGTLVTVSS
# VL: B1 VL with G24R, A44S, W99V, Q106K
# notes: human IgG1
# B4: H14 (antibody, V domains shown)
# VH: QVQLQESGPGLVKPSQTLSLTCTVSGGSISSGGYYWSWIRQHPGKGLEWIGYIYYSGSTYYNPSLKSLVTISVDTSKNQFSLKLSSVTAADTAVYYCARKGWLRGAFDIWGQGTMVTVSS
# VL: B1 VL with G24R, A44S, W99V, Q106K
# notes: human IgG1
# B5: H18 (antibody, V domains shown)
# VH: B2 VH
# VL: B1 VL with G24R, A44S, W99V, Q106K
# notes: human IgG1
# B6: R1-26 (IgG) (antibody, V domains shown)
# VH: B1 VH
# VL: B1 VL
# B7: H16 (antibody, V domains shown)
# VH: QLQLQESGPGLVKPSETLSLTCTVSGGSISSSSYYWGWIRQPPGKGLEWIGSIYYSGSTYYNPSLKSRVTISVDTSKNQFSLKLSSVTAADTAVYYCARREWLRGPFDYWGQGTLVTVSS
# VL: B1 VL with G24R, A44S, W99V, Q106K
# notes: human IgG1
# B8: H4 (antibody, V domains shown)
# VH: EVQLVESGGGLVQPGGSLRLSCAASGFTFSSYWMSWVRQAPGKGLEWVANIKQDGSEKYYVDSVKGRFTISRDNAKNSLYLQMNSLRAEDTAVYYCASQLWLRGAFDIWGQGTMVTVSS
# VL: B1 VL with G24R, A44S, W99V, Q106K
# How the values were obtained:
# SARS-CoV-2 RBD (WT) [1] = target: T1, SARS-CoV-2 RBD (WT) (SARS-CoV-2 Wuhan-Hu-1 (wildtype), UniProt P0DTC2); assay: BLI; details: both partners purified
# Bat CoV RaTG13 RBD [2] = target: Bat CoV RaTG13 RBD (Bat coronavirus RaTG13, UniProt A0ABF7PLN6); assay: BLI; details: both partners purified
# Bat CoV RaTG13 RBD [3] = target: Bat CoV RaTG13 RBD (Bat coronavirus RaTG13, UniProt A0ABF7PLN6, strain); assay: BLI; details: both partners purified
# SARS-CoV-2 RBD (WT) [4] = target: T1, SARS-CoV-2 RBD (WT); assay: BLI; details: both partners purified; remark: listed apart in the source
# Pangolin CoV GD1 RBD = Pangolin CoV GD1 RBD (Pangolin coronavirus Guangdong, isolate …, strain); assay: BLI; details: both partners purified
# SARS-CoV-1 RBD = SARS-CoV-1 RBD (SARS-CoV-1, strain , UniProt P59594); assay: BLI; details: both partners purified
# [5] = target: T2, wildtype SARS-CoV-2 spike receptor binding domain (RBD), residues 319-541 (SARS-CoV-2, wildtype (ancestral), UniProt P0DTC2); assay: BLI; details: both partners purified
# [6] = target: T2, wildtype SARS-CoV-2 spike receptor …; assay: cell-based or functional assay
Binder,Kd (SARS-CoV-2 RBD (WT) [4]) [nM],koff (SARS-CoV-2 RBD (WT) [4]) [s⁻¹],kon (SARS-CoV-2 RBD (WT) [4]) [M⁻¹ s⁻¹],Kd (Pangolin CoV GD1 RBD) [nM],koff (Pangolin CoV GD1 RBD) [s⁻¹],kon (Pangolin CoV GD1 RBD) [M⁻¹ s⁻¹],Kd (Bat CoV RaTG13 RBD [3]) [nM],koff (Bat CoV RaTG13 RBD [3]) [s⁻¹],kon (Bat CoV RaTG13 RBD [3]) [M⁻¹ s⁻¹],further results
B1,,,,,,,,,,Kd (SARS-CoV-2 RBD (WT) [1]): 3.84 nM; koff (SARS-CoV-2 RBD (WT) [1]): 0.00177 s⁻¹; kon (SARS-CoV-2 RBD (WT) [1]): 460000 M⁻¹ s⁻¹
B2,,,,,,,,,,binding result (Bat CoV RaTG13 RBD [2]): binds
B3,1500,0.195,129000,,,,,,,binding result (Bat CoV RaTG13 RBD [3]): no binding (tested: 200 nM (highest of the series))
B4,34,0.0182,536000,451,0.0205,45500,302,0.0151,49900,
B5,,,,134,0.00624,46500,332,0.00612,18400,Kd (SARS-CoV-1 RBD): 231 nM; koff (SARS-CoV-1 RBD): 0.00283 s⁻¹; kon (SARS-CoV-1 RBD): 12300 M⁻¹ s⁻¹
B6,,,,,,,,,,Kd [5]: 3.8 nM; pseudovirus neutralization IC50 (pseudovirus displaying WT SARS-CoV-2 S-protein) [6]: 2.7 nM
B7,97.9,0.0498,509000,737,0.0254,34400,,,,binding result (Bat CoV RaTG13 RBD [3]): no binding (tested: 200 nM (highest of the series))
B8,29.9,0.0105,351000,355,0.0102,28800,503,0.0134,26700,
